Changes are numbered by the printed parent chain.

To fix the notation:
B1: Recombinant BosR (BB0647) (natural protein)
chain: MNDNIIDVHSALEKVGITNDPVLLKNLTSELGMKASHSRNRIILYIASNPKEYFTAKEVYNKLIKEIPSLSKATVYNTLNILKERNILKDIKTTDQKETKFYLSLASTIAHFKCNKCNQVHPIQLDDIKDILKDKLGENWETKSIEIIYSGHCNNCYKKDTHNNNNVPDENKEITL
notes: BosR (BB0647), Fur/PerR homologue of Borrelia burgdorferi; bosR amplified with primers ZM69F and ZM69R and cloned into pET SUMO (pOY73); apparent mass ~18.7 kDa, as for native BosR; The protein contained 1.4 mol of zinc per mol of protein; also called rBosR; purified BosR; source: E. coli BL21-DE3, purified (Ni-NTA spin column, SUMO protease cleavage, Superdex 200); not shown: His6, N-terminal, …
B2: ZM132 (BS1) (dsDNA)
DNA 1: GGCCTTGCCGATTTAATTTACAATCAATTACAAAAAAGTAAATAATTCAAAAAATACTCC
DNA 2: GGAGTATTTTTTGAATTATTTACTTTTTTGTAATTGATTGTAAATTAAATCGGCAAGGCC
B3: ZM127 (BS2) (dsDNA)
DNA 1: TTTAGTTTAAAACCATTTTTAAATTAAATTGGCACAGTTTTTGCATGAAAATTAAGTAGT
DNA 2: ACTACTTAATTTTCATGCAAAAACTGTGCCAATTTAATTTAAAAATGGTTTTAAACTAAA
B4: ZM166 (-24/-12 and DR mutant) (dsDNA)
DNA 1: TTTAGTTTAAAACCATTTTTAGGCCAAATTTTCACAGTTTTTGAATTCCAACAGGCAAAA
DNA 2: TTTTGCCTGTTGGAATTCAAAAACTGTGAAAATTTGGCCTAAAAATGGTTTTAAACTAAA
B5: ZM126 (dsDNA)
DNA 1: TTGCATGGAAATTAAGTAGTAAAAACTTAATCACAATATTCAAGAAAGGGGAGAAAATAT
DNA 2: ATATTTTCTCCCCTTTCTTGAATATTGTGATTAAGTTTTTACTACTTAATTTCCATGCAA
B6: ZM216 (ZM215 DR mutant) (dsDNA)
DNA 1: TGGTTTAGATGGCCTTTTTTTCTCAATTCAGCAATTTCTGAATATAGAATTTTCATATCT
DNA 2: AGATATGAAAATTCTATATTCAGAAATTGCTGAATTGAGAAAAAAAGGCCATCTAAACCA
B7: ZM219 (bosR upstream) (dsDNA)
DNA 1: AAAAAAATATGAAAATAAATAAATAATAAGTAGTAAAATATTAATAACTGGGTATAAAAT
DNA 2: ATTTTATACCCAGTTATTAATATTTTACTACTTATTATTTATTTATTTTCATATTTTTTT
B8: ZM220 (ZM219 DR mutant) (dsDNA)
DNA 1: B7 DNA 1 with A17G, A18G, A19C, T20C
DNA 2: B7 DNA 2 with A41G, T42G, T43C, T44C
B9: ZM160 (5' of BS3) (dsDNA)
DNA 1: TCACAATATTCAAGAAAGGGGAGAAAATATAATAACTATGAACATATTTAGTAATGAGGA
DNA 2: TCCTCATTACTAAATATGTTCATAGTTATTATATTTTCTCCCCTTTCTTGAATATTGTGA
B10: ZM213 (DR1 mutant) (dsDNA)
DNA 1: ATTTTATATCCTAGGCCGTTTAAAACCATTTTTAAATTAAATTGGCACAGTTTTTGCATG
DNA 2: CATGCAAAAACTGTGCCAATTTAATTTAAAAATGGTTTTAAACGGCCTAGGATATAAAAT
B11: ZM223 (DR1 and DR2 mutant) (dsDNA)
DNA 1: B10 DNA 1 with A35G, A36G, T37C, T38C
DNA 2: B10 DNA 2 with A23G, A24G, T25C, T26C
B12: ZM149 (dsDNA)
DNA 1: TTTAGTTTAAAACCATTTTTAAATTAAATTGGCACAGTTTTTGCATTTTAACAGGCAAAA
DNA 2: TTTTGCCTGTTAAAATGCAAAAACTGTGCCAATTTAATTTAAAAATGGTTTTAAACTAAA
B13: ZM156 (BS1 3' DR) (dsDNA)
DNA 1: GCTGAGATCTGTCGAATCAATTACAAAAAAGTAAATAATTCAAAAAATACTCCCCCTAAA
DNA 2: TTTAGGGGGAGTATTTTTTGAATTATTTACTTTTTTGTAATTGATTCGACAGATCTCAGC
B14: ZM211 (ZM156 DR mutant) (dsDNA)
DNA 1: B13 DNA 1 with A34G, A35G, T36C, A37C
DNA 2: B13 DNA 2 with T24G, A25G, T26C, T27C
B15: ZM147 (dsDNA)
DNA 1: AAAAAGCTGAGATCTGTCGACATCCATGGTGGCACAGTTTTTGCATGAAAATTAAGTAGT
DNA 2: ACTACTTAATTTTCATGCAAAAACTGTGCCACCATGGATGTCGACAGATCTCAGCTTTTT
B16: ZM218 (ZM217 DR mutant) (dsDNA)
DNA 1: AGTGTAAAAAGGCCAATCAATTTTTTCATTAAATATCCTTTTTATTTATTATGGTATTAA
DNA 2: TTAATACCATAATAAATAAAAAGGATATTTAATGAAAAAATTGATTGGCCTTTTTACACT
B17: ZM155 (BS1 5' DR) (dsDNA)
DNA 1: CTCAAAGCTTTGGCCTTGCCGATTTAATTTACAATCAATTACAAAGCTGAGATCTGTCGA
DNA 2: TCGACAGATCTCAGCTTTGTAATTGATTGTAAATTAAATCGGCAAGGCCAAAGCTTTGAG
B18: ZM210 (ZM155 DR mutant) (dsDNA)
DNA 1: B17 DNA 1 with A26G, A27G, T28C, T29C
DNA 2: B17 DNA 2 with A32G, A33G, T34C, T35C
B19: ZM157 (-24/-12 mutant) (dsDNA)
DNA 1: B4 DNA 1 with G22A, G23A, C24T, C25T
DNA 2: B4 DNA 2 with G36A, G37A, C38T, C39T

The first data set concerns the molecule itself. Briefly: SEC; purified BosR on a Superdex 200 column, calibrated with aldolase 158 kDa, ovalbumin 43 kDa and ribonuclease A 13.7 kDa; buffer A: 20 mM Tris, 20 mM NaCl, 100 mM L-arginine, pH 7.5.
Conditions: not given
Turning to B1, the “stoichiometry N” value amounted to 2.

The next data set deals with T1, BosR (rBosR) (UniProt O51592 1-176). In words: EMSA; 20 mM Hepes pH 7.5, 50 mM KCl, 1 mM MgCl2, 1 mM DTT, 5% glycerol, 100 ug/ml BSA, 50 ug/ml poly[d(A-T)], 30 fmol probe in 20 ul, 37 C 30 min. The note with it: protein: recombinant; tags: none (His6-SUMO tag removed by SUMO protease); chain copies: 2; label: digoxigenin 3' end (terminal transferase); blunt.
For the molecule B2, the Kd is 210 nM. Same read-out and setting: next, B3: 36.6 nM.

Staying with this data set, now noted: protein: recombinant; tags: none (His6-SUMO tag removed by SUMO protease); chain copies: 2; label: digoxigenin 3' end; blunt.
As to B4, the binding result was “no binding”. Regarding B5, the binding result is “no binding”. Regarding B6, the binding result was “no binding”. Regarding B7, the binding result was “binds”.

On to B8, for which the binding result is listed as “no binding”. Turning to B9, the binding result is listed as “no binding”.

For B10, the binding result is on record as “binds”. B11: the binding result is listed as “no binding”. Turning to B12, the binding result was “binds”.

In the case of B13, the binding result was “binds”. Consider B14, for which the binding result is “no binding”.

B15: the binding result is given as “no binding”. As to B16, the binding result is “no binding”. Take B17: the binding result is “binds”. On to B18, for which the binding result is reported as “no binding”.

A further data set has as its target T1, BosR (rBosR). In words: EMSA; binding not altered; 20 mM Hepes pH 7.5, 50 mM KCl, 1 mM MgCl2, 1 mM DTT, 5% glycerol, 100 ug/ml BSA, 50 ug/ml poly[d(A-T)], 30 fmol probe in 20 ul, 37 C 30 min. Conditions: protein: recombinant; tags: none (His6-SUMO tag removed by SUMO protease); chain copies: 2; label: digoxigenin 3' end; blunt.
For the molecule B19, the binding result is recorded as “binds”.

Source of the values: article PMC3037356, “BosR (BB0647) Controls the RpoN-RpoS Regulatory Pathway and Virulence Expression in Borrelia burgdorferi by a Novel DNA-Binding Mechanism” (PLoS Pathogens, 2011).
